PMC6547417
Read-outs that look alike come from different tables or passages of the source.

Legend:
Assay in all cases: EMSA
[1] = molecular target: T1, RPA (UniProt P27694;P15927;P35244 1-616;1-270;1-121)
[2] = molecular target: CST (CTC1-STN1-TEN1) (human, UniProt Q2NKJ3;Q9H668;Q86WV5 1-1217;1-368;1-123)
[3] = molecular target: T1, RPA; remark: listed apart in the source

T1 sequence (P27694 whole entry, chain 1 of 3): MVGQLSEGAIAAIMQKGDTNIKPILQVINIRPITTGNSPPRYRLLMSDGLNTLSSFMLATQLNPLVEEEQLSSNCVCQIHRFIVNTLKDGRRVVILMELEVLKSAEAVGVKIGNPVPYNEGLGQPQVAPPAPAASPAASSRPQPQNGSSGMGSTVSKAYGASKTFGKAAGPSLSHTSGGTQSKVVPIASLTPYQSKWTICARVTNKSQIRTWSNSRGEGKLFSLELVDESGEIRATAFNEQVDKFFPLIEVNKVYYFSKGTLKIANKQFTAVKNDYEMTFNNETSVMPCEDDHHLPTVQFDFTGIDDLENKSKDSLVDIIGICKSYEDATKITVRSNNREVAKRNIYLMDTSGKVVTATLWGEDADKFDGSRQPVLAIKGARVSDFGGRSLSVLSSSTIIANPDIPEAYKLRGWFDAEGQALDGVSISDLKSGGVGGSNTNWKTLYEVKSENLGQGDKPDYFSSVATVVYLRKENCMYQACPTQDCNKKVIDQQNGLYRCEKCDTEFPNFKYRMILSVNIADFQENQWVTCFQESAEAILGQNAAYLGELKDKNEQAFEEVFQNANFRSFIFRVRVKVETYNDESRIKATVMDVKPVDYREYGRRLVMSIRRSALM
T1 sequence (P15927 whole entry, chain 2 of 3): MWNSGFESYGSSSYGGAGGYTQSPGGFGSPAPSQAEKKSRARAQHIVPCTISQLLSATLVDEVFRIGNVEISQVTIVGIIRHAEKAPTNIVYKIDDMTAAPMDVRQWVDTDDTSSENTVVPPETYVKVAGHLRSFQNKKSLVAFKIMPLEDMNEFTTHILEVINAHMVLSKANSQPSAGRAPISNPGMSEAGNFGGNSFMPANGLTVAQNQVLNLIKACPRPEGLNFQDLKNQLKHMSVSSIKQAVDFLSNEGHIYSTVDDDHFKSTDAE
T1 sequence (P35244 whole entry, chain 3 of 3): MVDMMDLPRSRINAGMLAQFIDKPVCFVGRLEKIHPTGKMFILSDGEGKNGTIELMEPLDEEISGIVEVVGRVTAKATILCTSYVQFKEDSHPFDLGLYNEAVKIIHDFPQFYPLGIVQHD
CST (CTC1-STN1-TEN1), sequence (Q2NKJ3 whole entry, chain 1 of 3): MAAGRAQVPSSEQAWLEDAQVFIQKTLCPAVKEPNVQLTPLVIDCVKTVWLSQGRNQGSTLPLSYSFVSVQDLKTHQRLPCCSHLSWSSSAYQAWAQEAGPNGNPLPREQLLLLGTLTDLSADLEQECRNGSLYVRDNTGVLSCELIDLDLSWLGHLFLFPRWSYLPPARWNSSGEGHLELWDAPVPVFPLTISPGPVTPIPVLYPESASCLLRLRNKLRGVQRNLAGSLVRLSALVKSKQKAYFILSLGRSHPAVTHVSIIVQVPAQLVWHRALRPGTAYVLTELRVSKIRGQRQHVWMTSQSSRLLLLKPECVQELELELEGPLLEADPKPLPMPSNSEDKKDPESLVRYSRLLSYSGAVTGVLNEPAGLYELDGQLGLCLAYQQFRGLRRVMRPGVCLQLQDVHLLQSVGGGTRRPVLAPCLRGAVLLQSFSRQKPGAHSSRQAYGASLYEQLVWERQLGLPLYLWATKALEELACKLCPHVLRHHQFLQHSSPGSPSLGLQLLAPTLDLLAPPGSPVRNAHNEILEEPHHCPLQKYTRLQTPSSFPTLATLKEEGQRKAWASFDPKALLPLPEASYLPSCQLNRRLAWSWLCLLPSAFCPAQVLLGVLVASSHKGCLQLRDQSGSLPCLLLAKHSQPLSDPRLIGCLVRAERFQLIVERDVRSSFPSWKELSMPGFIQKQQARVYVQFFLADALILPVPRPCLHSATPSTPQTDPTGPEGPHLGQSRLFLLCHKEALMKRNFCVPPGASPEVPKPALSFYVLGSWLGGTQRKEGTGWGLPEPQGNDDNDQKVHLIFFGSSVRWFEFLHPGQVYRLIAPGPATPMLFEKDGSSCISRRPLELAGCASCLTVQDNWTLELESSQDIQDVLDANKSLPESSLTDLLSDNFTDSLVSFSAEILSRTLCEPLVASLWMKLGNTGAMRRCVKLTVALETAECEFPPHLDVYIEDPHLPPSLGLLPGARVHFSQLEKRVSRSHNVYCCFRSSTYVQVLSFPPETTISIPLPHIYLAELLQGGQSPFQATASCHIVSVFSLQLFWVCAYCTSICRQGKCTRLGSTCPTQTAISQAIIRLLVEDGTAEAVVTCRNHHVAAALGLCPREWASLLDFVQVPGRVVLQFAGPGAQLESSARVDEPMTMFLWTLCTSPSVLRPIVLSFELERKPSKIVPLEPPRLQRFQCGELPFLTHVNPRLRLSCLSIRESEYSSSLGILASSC
CST (CTC1-STN1-TEN1), sequence (Q9H668 whole entry, chain 2 of 3): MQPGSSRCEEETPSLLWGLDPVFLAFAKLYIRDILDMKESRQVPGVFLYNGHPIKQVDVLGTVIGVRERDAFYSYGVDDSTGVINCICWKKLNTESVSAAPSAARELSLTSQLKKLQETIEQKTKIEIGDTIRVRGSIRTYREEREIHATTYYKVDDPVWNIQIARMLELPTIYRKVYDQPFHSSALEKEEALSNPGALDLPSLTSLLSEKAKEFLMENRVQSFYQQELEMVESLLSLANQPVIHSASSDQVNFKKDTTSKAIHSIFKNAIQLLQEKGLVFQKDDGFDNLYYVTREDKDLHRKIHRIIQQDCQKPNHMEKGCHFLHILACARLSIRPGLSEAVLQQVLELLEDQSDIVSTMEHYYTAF
CST (CTC1-STN1-TEN1), sequence (Q86WV5 whole entry, chain 3 of 3): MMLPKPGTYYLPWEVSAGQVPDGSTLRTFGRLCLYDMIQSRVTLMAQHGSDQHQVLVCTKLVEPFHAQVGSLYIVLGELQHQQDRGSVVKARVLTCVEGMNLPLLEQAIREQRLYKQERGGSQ

Binder | Kd [1] | Kd [2] | Kd [3]
GGGTTAGGGTTAGGGTTAGGG (structured_DNA) [Tel21 G4] | 5.5 nM | – | –
GGGTTAGGGTTAGGGTTAGGG (ssDNA) [Tel21] | – | 1.3 nM | 1.9 nM
